These results are taken from patent publication US20220072036A1, “METHOD FOR INHIBITING CORONAVIRUS AND METHOD FOR TREATING DISEASE ASSOCIATED WITH CORONAVIRUS INFECTION” (AMAZING FORTUNE CO., LTD., priority 2020, published 2022).

Data set [1] concerns CC(C)C[C@H](NC(=O)[C@H](CCCNC(=N)N)NC(=O)[C@@H](N)Cc1ccccc1)C(=O)N[C@@H](CCCCN)C(=O)NCC(=O)NCC(=O)Nc1ccc([N+](=O)[O-])cc1. In words: purified protein, by the assay type. The conditions noted are these: pH 7.4; 30.0 °C.
Data set [2] addresses SARS-CoV-2 papain-like protease (PLPro) (Severe acute respiratory syndrome coronavirus 2, UniProt P0DTD1). The format is biochemical. Particulars: SARS-CoV2 PLPro 0.9 μM, 30 min preincubation, FG6-pNA substrate, 30° C., 300 seconds; inhibitor concentrations per Table 1; mean±standard deviation.

As for “SARS-CoV-2 PLpro (Severe acute respiratory syndrome coronavirus 2)”, in data set [1], the Km (in general, the substrate concentration at which the rate is half of its maximum) came to 2500 ± 30 µM; the kcat – broadly, the number of substrate molecules converted per active site and unit of time at saturation – amounted to 0.85 ± 0.01 s⁻¹.
For the molecule `[Mg+2]` [Comparative Group 2], in data set [2], the Inhibition percentage is listed as 13.99 ± 0.11%.
Consider `[Zn+2]` [Comparative Group 3], for which the Inhibition percentage in data set [2] stood at 19.83 ± 0.88%.
